Measurements reported in patent US20230414752A1.

Molecular target: human EpCAM (human) (UniProt P16422)
Experiment: binding affinity, method not stated

UniProt P16422, sequence (P16422 24-265 limits assumed): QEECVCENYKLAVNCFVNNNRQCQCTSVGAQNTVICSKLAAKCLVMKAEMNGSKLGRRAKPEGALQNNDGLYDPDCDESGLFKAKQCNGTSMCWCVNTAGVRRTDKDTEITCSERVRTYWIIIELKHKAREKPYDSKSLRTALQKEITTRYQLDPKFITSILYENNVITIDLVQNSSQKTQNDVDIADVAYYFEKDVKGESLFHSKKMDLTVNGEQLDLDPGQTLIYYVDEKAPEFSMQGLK

- Kd: 2.8 nM
B1: hVIB-13 (VHH)
VHH: QVQLVESGGGLVQPGGSLTLSCAASGTGSIFSINLMGWYRQAPGKQRELVARITSGDSTVYADSVKGRFTISRDNSKNTLYLQMNSLRPEDTAVYYCNLLLRSSPGATTPYWGQGTLVTVSS
